Data from the Human Domainome abundance scans (Beltran et al. 2025).
± gives the uncertainty stated by the source.

B1: DNA topoisomerase 3-alpha, residues 812 to 851; numbered along this chain, Q13472 (parent)
chain: TCNCGQEAVLLTVRKEGPNRGRQFFKCNGGSCNFFLWADS
B2: Zinc finger homeobox protein 3, residues 2147 to 2202; numbered along this chain, Q15911 (parent)
chain: RPRTRITDDQLRVLRQYFDINNSPSEEQIKEMADKSGLPQKVIKHWFRNTLFKERQ

Variants of: B1
Assay: abundance fitness (aPCA) (normalised: wild type 0, dead -1); higher = more abundant; growth selection in yeast, the domain comes from the species named
Details: Homo sapiens

Abundance fitness of substitutions, site by site:
R14: K 0.089 ± 0.11, L -0.099 ± 0.068, E 0.001 ± 0.054, G -0.092 ± 0.043, A -0.006 ± 0.047, P -0.312 ± 0.065, M 0.06 ± 0.057, C -0.15 ± 0.09, Q 0.001 ± 0.095, N -0.166 ± 0.34
C2: G -0.601 ± 0.36, F -0.827 ± 0.38, S -0.593 ± 0.24
G5: S -0.377 ± 0.22, V -0.714 ± 0.098, K -0.263 ± 0.11, M -0.267 ± 0.095, L -0.666 ± 0.059, C -0.484 ± 0.063, H -0.419 ± 0.14, A -0.437 ± 0.22, R -0.467 ± 0.11, Q -0.259 ± 0.073
L11: W -0.072 ± 0.072, C -0.208 ± 0.17, T 0.027 ± 0.081, Q 0.054 ± 0.086, G 0.041 ± 0.064, A 0.012 ± 0.23, S 0.008 ± 0.057, R 0.049 ± 0.053, V 0.031 ± 0.06
T12: E -0.722 ± 0.22, R -0.437 ± 0.086, C -0.39 ± 0.2, H -0.383 ± 0.2, W -0.721 ± 0.2, P -0.528 ± 0.11, V -0.47 ± 0.083, S -0.475 ± 0.23, K -0.347 ± 0.057, A -0.59 ± 0.3, Q -0.24 ± 0.32, Y -0.356 ± 0.18
T1: Q -0.24 ± 0.19, W -0.858 ± 0.47
V13: S -0.234 ± 0.14
C4: V -1.09 ± 0.19, L -1.24 ± 0.41, R -0.907 ± 0.26, G -1.3 ± 0.26
Q6: G -0.182 ± 0.12, R 0.038 ± 0.22, A 0.229 ± 0.12, V -0.338 ± 0.15
L10: S -0.33 ± 0.078, V -0.357 ± 0.17, R -0.126 ± 0.076, E -0.168 ± 0.11, K -0.065 ± 0.12, T -0.068 ± 0.47, G -0.474 ± 0.11, A -0.284 ± 0.087
N3: G -0.739 ± 0.15, R -0.539 ± 0.1, L -0.32 ± 0.091, D -0.006 ± 0.068
A8: M -0.172 ± 0.06, L -0.238 ± 0.12, D -0.903 ± 0.37, F -1 ± 0.44, W -0.367 ± 0.15, E -0.644 ± 0.11, P 0.309 ± 0.088, S -0.369 ± 0.058, R -0.543 ± 0.11
V9: P -0.227 ± 0.099, R -0.154 ± 0.063, G -0.355 ± 0.046, Q -0.04 ± 0.067, L 0.12 ± 0.26, C -0.226 ± 0.11, S -0.194 ± 0.091
E7: G -0.221 ± 0.051, H -0.142 ± 0.1, R -0.18 ± 0.093, P -0.023 ± 0.088, S -0.233 ± 0.15

Variants of: B2
Assay: as above
Details: Homo sapiens

Abundance fitness of substitutions, site by site:
E54: I 0.235 ± 0.38, M -0.107 ± 0.17, H 0.085 ± 0.25, T -0.048 ± 0.13, L -0.127 ± 0.1, G -0.291 ± 0.078, P -0.367 ± 0.17, S -0.128 ± 0.093, Y -0.277 ± 0.15, V -0.159 ± 0.1, Q 0.04 ± 0.16, C -0.149 ± 0.11, D 0.046 ± 0.18, R -0.101 ± 0.079, K -0.344 ± 0.15
L51: H 0.016 ± 0.13, W -0.34 ± 0.086, N -0.014 ± 0.14, G -0.073 ± 0.07, A -0.037 ± 0.076, M 0.047 ± 0.12, P -0.224 ± 0.11, E -0.116 ± 0.1, T -0.059 ± 0.096, S 0.015 ± 0.083, C -0.088 ± 0.11, Q 0.044 ± 0.11, V -0.119 ± 0.077, K 0.244 ± 0.13, F -0.214 ± 0.13, I -0.232 ± 0.14, Y -0.007 ± 0.21, R -0.013 ± 0.07
W46: N -0.561 ± 0.19, R -0.812 ± 0.093, V -0.177 ± 0.11, M -0.429 ± 0.15, Q -0.576 ± 0.14, K -0.738 ± 0.14, F -0.163 ± 0.18, T -0.555 ± 0.16, S -0.83 ± 0.13, A -0.63 ± 0.13, E -0.348 ± 0.17, P -0.812 ± 0.2, D -0.361 ± 0.41, C -0.524 ± 0.14, Y -0.439 ± 0.21, I -0.118 ± 0.2
F47: S -0.632 ± 0.093, W -0.188 ± 0.11, V -0.17 ± 0.087, M -0.242 ± 0.17, D -0.819 ± 0.19, N -0.526 ± 0.24, I -0.265 ± 0.18, H -0.699 ± 0.16, P -0.912 ± 0.16, R -0.858 ± 0.1, K -0.774 ± 0.17, Y -0.273 ± 0.19, L -0.211 ± 0.09, C -0.169 ± 0.11, Q -0.801 ± 0.18, A -0.482 ± 0.094
H45: F 0.009 ± 0.14, C -0.194 ± 0.12, P -0.377 ± 0.11, S 0.028 ± 0.086, D 0.109 ± 0.12, K 0.141 ± 0.11, V 0.015 ± 0.078, R -0.052 ± 0.091, Y -0.036 ± 0.12, A 0.039 ± 0.077, I -0.09 ± 0.13, M 0.029 ± 0.1, E 0.106 ± 0.099, L -0.032 ± 0.079, W 0.028 ± 0.099, G 0.007 ± 0.085, Q 0.085 ± 0.1
I43: L -0.443 ± 0.097, M -0.706 ± 0.16, P -1.05 ± 0.21, K -0.945 ± 0.21, N -0.959 ± 0.22, Y -1.08 ± 0.34, G -1 ± 0.088, R -1.21 ± 0.12, D -1.12 ± 0.23, F -0.864 ± 0.39, A -0.534 ± 0.089, C -0.349 ± 0.2, T -0.54 ± 0.13, V -0.015 ± 0.09, S -0.987 ± 0.14, E -0.767 ± 0.12, Q -1 ± 0.17
F52: P -0.059 ± 0.18, W -0.161 ± 0.1, K 0.185 ± 0.13, I -0.296 ± 0.16, G 0.09 ± 0.068, T 0.181 ± 0.12, R 0.148 ± 0.075, L 0.026 ± 0.086, N 0.069 ± 0.16, E -0.015 ± 0.11, V 0.05 ± 0.079, C 0.01 ± 0.14, H -0.189 ± 0.22, D -0.098 ± 0.2, M 0.101 ± 0.12, S -0.029 ± 0.095, A 0.074 ± 0.083
R55: Q -0.054 ± 0.12, W -0.396 ± 0.099, H 0.013 ± 0.29, C -0.313 ± 0.15, A -0.139 ± 0.097, T -0.206 ± 0.12, N -0.356 ± 0.2, K -0.175 ± 0.16, L -0.179 ± 0.084, G -0.054 ± 0.075, F -0.146 ± 0.14, I -0.096 ± 0.16, Y -0.195 ± 0.27, P -0.343 ± 0.13, M -0.101 ± 0.12, D 0.114 ± 0.2, E -0.173 ± 0.11
Q56: A 0.09 ± 0.31, P -0.261 ± 0.44, G -0.419 ± 0.33, H -0.5 ± 0.43, R 0.166 ± 0.17, T -0.298 ± 0.23, S -0.57 ± 0.28, D -0.844 ± 0.38
T50: G -0.187 ± 0.086, L -0.17 ± 0.11, E -0.047 ± 0.12, H -0.048 ± 0.2, N -0.044 ± 0.15, R -0.068 ± 0.096, A -0.11 ± 0.1, M -0.051 ± 0.24, D -0.264 ± 0.18, S -0.016 ± 0.12, Q -0.16 ± 0.19, F -0.341 ± 0.2, V -0.078 ± 0.097, I -0.262 ± 0.15, K 0.094 ± 0.17, C -0.314 ± 0.17, P -0.335 ± 0.16
K44: N -0.334 ± 0.19, Y -0.354 ± 0.18, T -0.246 ± 0.11, W -0.176 ± 0.1, H -0.131 ± 0.2, A -0.096 ± 0.097, S -0.214 ± 0.12, D -0.08 ± 0.16, R -0.069 ± 0.081, F -0.175 ± 0.16, L -0.03 ± 0.088, G -0.11 ± 0.082, I -0.102 ± 0.15, E -0.146 ± 0.12, M -0.2 ± 0.14, V -0.107 ± 0.084
R48: E 0.057 ± 0.12, G -0.118 ± 0.068, M -0.06 ± 0.11, W -0.306 ± 0.089, P -0.461 ± 0.14, T -0.07 ± 0.12, A -0.042 ± 0.091, F -0.023 ± 0.16, C -0.446 ± 0.14, Q 0.008 ± 0.12, K 0.107 ± 0.13, H -0.064 ± 0.21, S -0.121 ± 0.09, Y -0.413 ± 0.21, N 0.102 ± 0.21, I -0.009 ± 0.14
K53: C -0.269 ± 0.14, H -0.07 ± 0.14, E -0.006 ± 0.1, R -0.033 ± 0.068, A 0.017 ± 0.083, T 0.017 ± 0.11, M 0.09 ± 0.11, S -0.056 ± 0.089, Y 0.141 ± 0.25, Q 0.055 ± 0.095, W -0.299 ± 0.083, I -0.124 ± 0.17, L -0.163 ± 0.085, P -0.192 ± 0.12, F -0.195 ± 0.13, N -0.041 ± 0.14, D -0.18 ± 0.17, V -0.167 ± 0.087
V42: N -0.15 ± 0.17, S -0.139 ± 0.09, I -0.074 ± 0.12, W -0.119 ± 0.095, T -0.027 ± 0.13, K -0.051 ± 0.15, C 0.058 ± 0.1, F -0.293 ± 0.18, P -0.618 ± 0.18, R -0.028 ± 0.09, D 0.094 ± 0.15, A -0.098 ± 0.11, H -0.374 ± 0.19, M -0.218 ± 0.15, L -0.103 ± 0.092, Y -0.18 ± 0.14
N49: H -0.451 ± 0.29, D 0.001 ± 0.15, W -0.014 ± 0.15, F -0.194 ± 0.16, Q -0.075 ± 0.15, A -0.061 ± 0.11, R 0.02 ± 0.086, L -0.117 ± 0.098, K 0.06 ± 0.13, C 0.082 ± 0.13, Y -0.145 ± 0.19, P -0.65 ± 0.19, G -0.124 ± 0.096, S -0.06 ± 0.11, I -0.236 ± 0.17, V -0.053 ± 0.1, E 0.153 ± 0.16, M -0.093 ± 0.13, T -0.039 ± 0.12
K41: W -0.361 ± 0.12, V -0.108 ± 0.091, Y -0.389 ± 0.21
